Earlier results in patent US20050176623A1, “Non-invasive treatment of disease using amphipathic compounds” (priority 2004, published 2005).

Conditions: fractional catabolic rate, kidney

## apolipoprotein A-I [apoA-I]
  normal clearance of apoA-I: approximately 0.3 pools/day
